{"source": "patent US12138308B2", "about": "“Polymer composite for helicobacter pylori recognition and composition for photodynamic therapy comprising same” (eNBiaR Inc., priority 2018, dated 2024)", "key": {"[1]": {"tested_on": "Helicobacter pylori (SS1 strain)", "assay": "Antibacterial activity in vitro by concentration, CFU assay, laser 10.0 J/cm^2", "format": "cell-based", "conditions": "for concentration at which colonies hardly appear / did not appear / Helicobacter pylori no longer grows / concentration from which the number of Helicobacter pylori colonies decreases: concentration based on the photosensitizer; for concentration at which colonies hardly appear / did not appear / Helicobacter pylori no longer grows / concentration from which the number of Helicobacter pylori colonies decreases / colony result value compared to the NC group at 50.0 μg/ml: laser 10.0 J/cm^2; for colony result value compared to the NC group at 50.0 μg/ml: 50.0 μg/ml free photosensitizer"}, "[2]": {"tested_on": "Helicobacter pylori (26695 strain)", "assay": "Inhibition zone analysis of photodynamic antibacterial effect by laser intensity", "format": "cell-based", "conditions": "50.0 μg/ml based on Pheoa"}, "[3]": {"tested_on": "Helicobacter pylori SS1 strain", "assay": "Confocal microscopy: interaction with and inactivation of Helicobacter pylori SS1 strain", "format": "cell-based", "from_the_text": "(§1) Then, it was redispersed with D.W and the above process was repeated twice.\nas §1"}, "AGS cells [4]": {"tested_on": "AGS cells", "protocol": "AGS cells were dispensed into each well by 1 ml at a concentration of 2×10^4 cells/well in a 24-well plate and cultured at 37° C. and 5% CO2 for 24 hours.\nAfter the reaction, the laser was irradiated in the range of 0-4.0 J/cm^2 using a laser of 50 mW intensity, and the MTT assay was performed to calculate the cell viability compared with the control."}, "AGS cells [5]": {"tested_on": "AGS cells", "assay": "Cellular uptake in AGS cells (pheophorbide a fluorescence intensity)", "format": "cell-based, human", "conditions": "30 minutes at 36° C., equal concentration based on pheophorbide a", "protocol": "After incubation, it was washed twice with DPBS, treated with trypsin and cells were collected and centrifuged (1500 rpm, 3 minutes) to remove the supernatant."}}}
{"substance": "3′-sialyllactose-chitosan-pheophorbide a [3SL-Chitosan-Pheoa]", "values": [{"measurement": "concentration at which colonies hardly appear / did not appear / Helicobacter pylori no longer grows", "setting": "[1]", "value": 25000, "unit": "ng/mL"}, {"measurement": "concentration from which the number of Helicobacter pylori colonies decreases", "setting": "[1]", "value": 10000, "unit": "ng/mL"}]}
{"substance": "butyl-poly(3SL-lysine)10-SSiPC", "values": [{"measurement": "number of Helicobacter pylori colonies at 25.0 μg/ml", "setting": "[1]; 25.0 μg/ml based on SSiPC, laser 10.0 J/cm^2, decreased from 1×10^5 CFU/ml", "value": "4×10^3 CFU/ml"}, {"measurement": "concentration at which colonies hardly appear / did not appear / Helicobacter pylori no longer grows", "setting": "[1]", "value": 50000, "unit": "ng/mL"}]}
{"substance": "3′-Sialyllactose-PEG-Pheophorbide a [3SL-PEG-Pheoa]", "values": [{"measurement": "inhibition zone at laser intensities of 30, 40, and 50 J/cm^2", "setting": "[2]; 100 mW laser", "value": "inhibition zone was also identified"}, {"measurement": "inhibition zone at 10.0 J/cm^2 laser", "setting": "[2]; 100 mW laser, read two days later", "value": "inhibition zone in which Helicobacter pylori does not grow was confirmed"}, {"measurement": "inhibition zone without laser irradiation", "setting": "[2]; comparative group, laser not irradiated", "value": "no inhibition zone was found"}]}
{"substance": "butyl-poly(6SL-lysine)10-Pheoa", "values": [{"measurement": "interaction with Helicobacter pylori (Cy5 fluorescence of pheophorbide a coinciding with SYTO 9)", "setting": "[3]; SS1 strain 1×10^6 CFU/ml, 1 μg/ml based on pheophorbide a, 37° C., 2 hours", "value": "fluorescence of Cy5 (purple) of pheophorbide a of HSP did not appear"}, {"measurement": "inactivation: propidium iodide (Red) fluorescence, cell membrane damage", "setting": "[3]; SS1 strain, total 10 J/cm^2, 50 mW, Laser (+) for 3SL-LRHSP, Laser(+) and Laser(−) for the controls", "value": "propidium iodide (Red) fluorescence was not confirmed"}]}
{"substance": "chlorin e6 [Ce6, reference compound]", "values": [{"measurement": "colony result value compared to the NC group at 50.0 μg/ml", "setting": "[1]", "value": "more than half"}]}
{"substance": "butyl-poly(3SL-lysine)10-HPP", "values": [{"measurement": "number of Helicobacter pylori colonies at 10.0 μg/ml", "setting": "[1]; 10.0 μg/ml based on HPP, laser 10.0 J/cm^2, decreased from 1×10^5 CFU/ml", "value": "3×10^3 CFU/ml"}, {"measurement": "concentration at which colonies hardly appear / did not appear / Helicobacter pylori no longer grows", "setting": "[1]", "value": "≥ 25000", "unit": "ng/mL"}]}
{"substance": "3′-Sialyllactose-Pullulan-Pheophorbide a [Example 3SL-PU-Pheoa]", "values": [{"measurement": "number of Helicobacter pylori colonies at 20.0 μg/ml", "setting": "[1]; 20.0 μg/ml based on Pheoa, laser 10.0 J/cm^2, decreased from 1×10^5 CFU/ml", "value": "5×10^3 CFU/ml"}, {"measurement": "concentration at which colonies hardly appear / did not appear / Helicobacter pylori no longer grows", "setting": "[1]", "value": "≥ 50000", "unit": "ng/mL"}]}
{"substance": "succinylated silicon phthalocyanine [SSiPC, reference compound]", "values": [{"measurement": "colony result value compared to the NC group at 50.0 μg/ml", "setting": "[1]", "value": "more than half"}]}
{"substance": "pheophorbide a [reference compound]", "values": [{"measurement": "laser irradiation dose from which cytotoxicity appeared", "setting": "AGS cells [4]", "value": 0.8, "unit": "J/cm^2"}, {"measurement": "cellular uptake: pheophorbide a fluorescence intensity compared with the control", "setting": "AGS cells [5]", "value": "7×10^2"}, {"measurement": "number of Helicobacter pylori colonies at 50.0 μg/ml", "setting": "[1]; 50.0 μg/ml based on Pheoa, same amount of laser (10.0 J/cm^2)", "value": "9×10^2 CFU/ml"}, {"measurement": "colony result value compared to the NC group at 50.0 μg/ml", "setting": "[1]", "value": "slightly less than half"}]}
{"substance": "butyl-poly(3SL-lysine)10-Ce6", "values": [{"measurement": "concentration at which colonies hardly appear / did not appear / Helicobacter pylori no longer grows", "setting": "[1]", "value": 1000, "unit": "ng/mL"}, {"measurement": "concentration from which the number of Helicobacter pylori colonies decreases", "setting": "[1]", "value": 500, "unit": "ng/mL"}]}
{"substance": "butyl-poly(3SL-lysine)10-PPIX", "values": [{"measurement": "concentration at which colonies hardly appear / did not appear / Helicobacter pylori no longer grows", "setting": "[1]", "value": 10000, "unit": "ng/mL"}, {"measurement": "concentration from which the number of Helicobacter pylori colonies decreases", "setting": "[1]", "value": 5000, "unit": "ng/mL"}]}
